Numbering of substitutions follows the chain as printed. Names and notes keep the numbering of the source.
Experiments:
[1] = target: the molecule itself; assay: cryo-EM structure; apo-GLS2, 5 µM, no substrate or activator; single particle, C2 symmetry; step: subunits in the tetramer
[2] = target: the molecule itself; assay: cryo-EM structure; GLS2 5 µM with 30 µM inhibitor 968 in 2% DMSO; 2D classification, dimer classes kept, 3.65 Å map, model not built
[3] = target: the molecule itself; assay: negative stain electron microscopy; glutaminase 1 µM with glutamine 20 mM and inorganic phosphate (50-200 mM), RT, 30 s to 1 min after mixing (GAC Y466W with DMSO also 30 min); step: tetramers to filament

B1: human liver-type glutaminase GLS2, wild type, without the mitochondrial localization sequence (residue 38-602) (enzyme, UniProt Q9UI32 38-602, looked up)
chain: HHLSEAAAQGRETPHSHQPQHQDHDSSESGMLSRLGDLLFYTIAEGQERIPIHKFTTALKATGLQTSDPRLRDCMSEMHRVVQESSSGGLLDRDLFRKCVSSNIVLLTQAFRKKFVIPDFEEFTGHVDRIFEDVKELTGGKVAAYIPQLAKSNPDLWGVSLCTVDGQRHSVGHTKIPFCLQSCVKPLTYAISISTLGTDYVHKFVGKEPSGLRYNKLSLNEEGIPHNPMVNAGAIVVSSLIKMDCNKAEKFDFVLQYLNKMAGNEYMGFSNATFQSEKETGDRNYAIGYYLKEKKCFPKGVDMMAALDLYFQLCSVEVTCESGSVMAATLANGGICPITGESVLSAEAVRNTLSLMHSCGMYDFSGQFAFHVGLPAKSAVSGAILLVVPNVMGMMCLSPPLDKLGNSHRGTSFCQKLVSLFNFHNYDNLRHCARKLDPRREGAEIRNKTVVNLLFAAYSGDVSALRRFALSAMDMEQKDYDSRTALHVAAAEGHIEVVKFLIEACKVNPFAKDRWGNIPLDDAVQFNHLEVVKLLQDYQDSYTLSETQAEAAAEALSKENLESMV
notes: Tetramer in the apo state (cryo-EM); tetramers stack into filaments with glutamine and Pi; also called LGA; apo-GLS2; source: E. coli BL21 (DE3), purified (Co2+ TALON resin, HiTrap Q anion exchange, Superdex 200 SEC)
- stoichiometry N [1]: 4
- stoichiometry N [2]: 2

B2: human GLS2 (N308A) mutant (enzyme, UniProt Q9UI32 38-602, looked up)
chain: B1 chain with N271A
notes: liver-type glutaminase GLS2, human, residues 38-602, with N308A in the tetramer-tetramer (filament) interface; source: E. coli BL21 (DE3), purified (Co2+ TALON resin, HiTrap Q anion exchange, Superdex 200 SEC)
- stoichiometry N [3]: 4
